{"source": "the RNAGym collection of RNA variant scans (doi:10.7554/elife.80360)", "parents": {"B1": {"name": "Hairpin Ribozyme (parent)", "chain": "GUCCUCUUUCACGUGCGCGUGAAAGAGAGAAGUGAACCAGAGAAACACACGUUGUGGUAUAUUACCUGGUA"}}}
{"variants_of": "B1", "assay": "self-cleavage, relative activity (ratio to wild type); higher = more cleavage; co-transcriptional"}
{"variant": "GUCCUCUUUCACCUGCGCGUGCAAGAGAGAAGUGAACCAGAGAAACACACGUUGUGGUAUAUUACCUGGUA", "note": "[G13C A22C]", "self-cleavage": 0.591}
{"variant": "GUCCUCUUUCACAUGCGCGUGAAAGAGAGAAGCGAACCAGAGAAACACACGUUGUGGUAUAUUACCUGGUA", "note": "[G13A U33C]", "self-cleavage": 0.139}
{"variant": "GUCCUCUUUCACAUGCGCGUGAAAGAGAGAAGAGAACCAGAGAAACACACGUUGUGGUAUAUUACCUGGUA", "note": "[G13A U33A]", "self-cleavage": 0.165}
{"variant": "GUCCUCUUUCACAUGCGCGUGAAAGAGAGAAGGGAACCAGAGAAACACACGUUGUGGUAUAUUACCUGGUA", "note": "[G13A U33G]", "self-cleavage": 0.136}
{"variant": "GUCCUCUUUCACCUGCGCGUGAAGGAGAGAAGUGAACCAGAGAAACACACGUUGUGGUAUAUUACCUGGUA", "note": "[G13C A24G]", "self-cleavage": 0.537}
{"variant": "GUCCUCUUUCACCUGCGCGUGAAAGAGAGAUGUGAACCAGAGAAACACACGUUGUGGUAUAUUACCUGGUA", "note": "[G13C A31U]", "self-cleavage": 0.0909}
{"variant": "GUCCUCUUUCACAUGCGCGUGAAAGAGAGAAGUGACCCAGAGAAACACACGUUGUGGUAUAUUACCUGGUA", "note": "[G13A A36C]", "self-cleavage": 0.533}
{"variant": "GUCCUCUUUCACAUGCGCGUGAAAGAGAGAAGUGAGCCAGAGAAACACACGUUGUGGUAUAUUACCUGGUA", "note": "[G13A A36G]", "self-cleavage": 0.873}
{"variant": "GUCCUCUUUCACAUGCGCGUGAAAGAGAGAAGUGAACCAGAGAAACACACGUUGUGGUAUAUUGCCUGGUA", "note": "[G13A A64G]", "self-cleavage": 0.526}
{"variant": "GUCCUCUUUCACAUGCGCGUGAAAGAGAGAAGUGAACCAGAGAAACACACGUUGUGGUAUAUUACGUGGUA", "note": "[G13A C66G]", "self-cleavage": 0.16}
{"variant": "GUCCUCUUUCACAUGCGCGUGAAAGAGAGAAGUGAACCAGAGAAACACACGUUGUGGUAUAUUACCUGCUA", "note": "[G13A G69C]", "self-cleavage": 0.275}
{"variant": "GUCCUCUUUCACAUGCGCGUGAAAGAGAGAAGUGAAGCAGAGAAACACACGUUGUGGUAUAUUACCUGGUA", "note": "[G13A C37G]", "self-cleavage": 0.174}
{"variant": "GUCCUCUUUCACAUGCGCGUGAAAGAGAGAAGUGAAUCAGAGAAACACACGUUGUGGUAUAUUACCUGGUA", "note": "[G13A C37U]", "self-cleavage": 0.637}
{"variant": "GUCCUCUUUCACAUGCGCGUGAAAGAGGGAAGUGAACCAGAGAAACACACGUUGUGGUAUAUUACCUGGUA", "note": "[G13A A28G]", "self-cleavage": 1}
{"variant": "GUCCUCUUUCACAUGCGCGUGAAAGAGAGAAGUGAACCAGAGAAACACACGUUGUAGUAUAUUACCUGGUA", "note": "[G13A G56A]", "self-cleavage": 0.188}
{"variant": "GUCCUCUUUCACAUGCGCGUGAAAGAGAGAAGUGAACCAGAGAUACACACGUUGUGGUAUAUUACCUGGUA", "note": "[G13A A44U]", "self-cleavage": 0.133}
{"variant": "GUCCUCUUUCACAUGCGCGUGAAAGAGAGAAGUGAACCAGAGACACACACGUUGUGGUAUAUUACCUGGUA", "note": "[G13A A44C]", "self-cleavage": 0.195}
{"variant": "GUCCUCUUUCACAUGCGCGUGAAAGAGAGAAGUAAACCAGAGAAACACACGUUGUGGUAUAUUACCUGGUA", "note": "[G13A G34A]", "self-cleavage": 1.19}
{"variant": "GUCCUCUUUCACAUGCGCGUGAAAGAGAGAAGUUAACCAGAGAAACACACGUUGUGGUAUAUUACCUGGUA", "note": "[G13A G34U]", "self-cleavage": 1.22}
{"variant": "GUCCUCUUUCACAUGCGCGUGAAGGAGAGAAGUGAACCAGAGAAACACACGUUGUGGUAUAUUACCUGGUA", "note": "[G13A A24G]", "self-cleavage": 0.69}
{"variant": "GUCCUCUUUCACAUGCGCGUGAACGAGAGAAGUGAACCAGAGAAACACACGUUGUGGUAUAUUACCUGGUA", "note": "[G13A A24C]", "self-cleavage": 0.76}
{"variant": "GUCCUCUUUCACAUGCGCGUGAAAGAGAGAAGUGAACCAGAGAAACACACGUCGUGGUAUAUUACCUGGUA", "note": "[G13A U53C]", "self-cleavage": 0.645}
{"variant": "GUCCUCUUUCACAUGCGCGUGAAAGAGAGAAGUGAACCAGAGAAACACACGUUGUGGUAUGUUACCUGGUA", "note": "[G13A A61G]", "self-cleavage": 0.196}
{"variant": "GUCCUCUUUCACAUGCGCGUGAAAGAGAGAAGUGAACCAGAGAAACACACGUUGUGGUAUCUUACCUGGUA", "note": "[G13A A61C]", "self-cleavage": 0.223}
{"variant": "GUCCUCUUUCACAUGCGCGUGAAAGAGAGAAGUGAACUAGAGAAACACACGUUGUGGUAUAUUACCUGGUA", "note": "[G13A C38U]", "self-cleavage": 0.396}
{"variant": "GUCCUCUUUCACAUGCGCGUGAAAGAGAGAAGUGAACCAGAUAAACACACGUUGUGGUAUAUUACCUGGUA", "note": "[G13A G42U]", "self-cleavage": 0.234}
{"variant": "GUCCUCUUUCACAUGCGCGUGAAAGAGAGAAGUGAACCAGACAAACACACGUUGUGGUAUAUUACCUGGUA", "note": "[G13A G42C]", "self-cleavage": 0.302}
{"variant": "GUCCUCUUUCACAUGCGCGUGAUAGAGAGAAGUGAACCAGAGAAACACACGUUGUGGUAUAUUACCUGGUA", "note": "[G13A A23U]", "self-cleavage": 0.734}
{"variant": "GUCCUCUUUCACAUGCGCGUGAAAGAGAGAAGUGAACCAGAGAAACACAGGUUGUGGUAUAUUACCUGGUA", "note": "[G13A C50G]", "self-cleavage": 0.316}
{"variant": "GUCCUCUUUCACCUGCGCGUGAAAGAGAGAAGUGAACCAGAGAAACACCCGUUGUGGUAUAUUACCUGGUA", "note": "[G13C A49C]", "self-cleavage": 0.115}
{"variant": "GUCCUCUUUCACCUGCGCGUGAAAGAGAGAAGUGACCCAGAGAAACACACGUUGUGGUAUAUUACCUGGUA", "note": "[G13C A36C]", "self-cleavage": 0.304}
{"variant": "GUCCUCUUUCACAUGCGCGUGAAAGAGAGAAGUGAACCAAAGAAACACACGUUGUGGUAUAUUACCUGGUA", "note": "[G13A G40A]", "self-cleavage": 0.33}
{"variant": "GUCCUCUUUCACAUGCGCGUGAAAGAGAGAAGUGAACCAGAGCAACACACGUUGUGGUAUAUUACCUGGUA", "note": "[G13A A43C]", "self-cleavage": 0.119}
{"variant": "GUCCUCUUUCACAUGCGCGUGAAAGAGAGAAUUGAACCAGAGAAACACACGUUGUGGUAUAUUACCUGGUA", "note": "[G13A G32U]", "self-cleavage": 0.205}
{"variant": "GUCCUCUUUCACAUGCGCGUGAAAGAGAGAAGUGAACCAGAGAAACACACGUUGUGGCAUAUUACCUGGUA", "note": "[G13A U58C]", "self-cleavage": 0.817}
{"variant": "GUCCUCUUUCACAUGCGCGUGAAAGAGAGAAGUGAACCAGAGAAACACACGUUGUGGUAUAUUACCUCGUA", "note": "[G13A G68C]", "self-cleavage": 0.248}
{"variant": "GUCCUCUUUCACAUGCGCGUGAAAGAGAGAAGUGAACCAGAGAAACACACGUUGUGGUAUAUUACCUUGUA", "note": "[G13A G68U]", "self-cleavage": 0.218}
{"variant": "GUCCUCUUUCACAUGCGCGUGAAAGAGAGAAGUGAACCAGAGAAACACACGUUGUGGUAUAAUACCUGGUA", "note": "[G13A U62A]", "self-cleavage": 0.163}
